Assay results taken from PMC11218997, “Human cytomegalovirus deploys molecular mimicry to recruit VPS4A to sites of virus assembly” (PLOS Pathogens, 2024).
Numbering of substitutions follows the chain as printed. Names may count otherwise.

How the values were obtained:
yeast Vps4 = conditions: reported; cited from earlier work
VPS4A-FLAG [1] = experiment: Anti-FLAG co-immunoprecipitation from co-transfected HEK293FT cells; format: cell-based, human; conditions: 48 h post-transfection, immunoblot
Source text: (§1) All eukaryotic expression plasmids for pUL71 and pUL71 homologues were generated in the backbone of pEF1/Myc-His C expression vector (Invitrogen) by cloning using restriction enzymes. The open reading frame (ORF) of full-length UL71 was amplified from the HCMV wild-type BAC TB40-BAC4 using the primers ex_71_for and ex_71_rev and was the basis for all further UL71 mutants. C-terminally truncated variants UL71_1–326, UL71_1–320 and UL71_1–314 were generated using primers ex_71_for and respective reverse primers UL71_1–326_rev, UL71_1–320_rev and UL71_1–314_rev. Point mutants PPAA (P315A+P318A), V317D, P315A and P318A of the vMIM2 of pUL71 were generated by fusion PCR. For the example of the PPAA mutant, a first fragment UL71_1-326-PPAA was amplified with the primers ex_71_for and UL71 _1–326_P315A/P318A_rev. A second fragment UL71_320–361 was amplified by using primers UL71_1–361_P315A/P318A-for and ex_71_rev. The final PCR product UL71-PPAA was amplified by using fragment UL71_1-326-PPAA as template and ex_71_for and fragment UL71_320–361 as primers. UL71-V317D, UL71-P315A and UL71-P318A were generated similarly manner using the primers UL71 _1–326_V317D_rev, UL71 _1–326_P315A_rev and UL71 _1–326_P318A_rev, respectively, to generate the first fragment. […]

VPS4A-FLAG [2] = experiment: Co-transfection localisation, immunofluorescence, COS-7 cells; format: cell-based, human; conditions: COS-7, 20–24 h post-transfection
Source text: as §1

pUL71 = experiment: Co-transfection localisation of VPS4A-FLAG variants with pUL71, COS-7 cells; format: cell-based, HCMV; conditions: COS-7, co-transfection
Source text: Human VPS4A-FLAG, C-terminally fused with the FLAG-tag epitope, was expressed from expression vector pBJ5-Vps4Flag (gift from A. Calistri, University of Padova, Italy). Cloning of this vector is described in detail in [100]. The VPS4-FLAGΔMIT variant, comprising VPS4A residues 119–437, was generated from pBJ5-Vps4Flag using primers bex_VPS4aa119-437 and Flag+Stop_rev. Point mutant VPS4A-FLAG-V13D was amplified using primers Vps4A-V13D_for and Flag+Stop_rev. Variant VPS4-FLAG-L64D was generated by fusion PCR where primers Vps4_for and Vps4A-L64D_rev generated a fragment that was used as forward primer in a second PCR together with primer Flag+Stop_rev to generate full-length VPS4A. All VPS4A variants were cloned using restriction enzymes into backbone vector pEF1/Myc-His C.
Intracellular localisation studies after transient expression were performed in COS-7 cells that were seeded with 3.3×10^4 cells per well on glass coverslips in a 24-well plate. The next day, cells were transfected with the respective DNAs by using Lipofectamine LTX (Invitrogen) according to the manufacturer’s protocol. Between 20 to 24 hours post-transfection, cells were fixed with 4% (v/v) paraformaldehyde (PFA) in PBS for 10 min at 4°C and prepared for localisation analysis by using indirect immunofluorescence staining.

B1: Vps20: the yeast CHMP6 homologue (protein, UniProt Q04272 2-221, looked up)
Vacuolar protein …: GQKSSKVHITKTDRAILEVKRSKDEIHKFTRRTDNLILVEKSQLKDLIRKNPENYKSNMKVRFLLKRIHYQEHLLQQASDQLINLENMVSTLEFKMVEKQFINGLKNGNEILKKLNKEFSNVDELMDDVQDQIAYQNEINETLSRSLVGTSNYEDDLDKELDALESELNPEKMNNAKVANMPSTEGLPSLPQGEQTEQKEREEFATEERSDTKEPLALLS
Yeast Vps4
  Kd: 188 µM

B2: HSV-1 pUL51: HA-tagged pUL71 homologue from HSV-1 (pUL51) (protein)
chain: MASLLGAICGWGARPEEQYEMIRAAVPPSEAEPRLQEALAVVNALLPAPITLDDALGSLDDTRRLVKARALARTYHACMVNLERLARHHPGFEAPTIDGAVAAHQDKMRRLADTCMATILQMYMSVGAADKSADVLVSQAIRSMAESDVVMEDVAIAERALGLSAFGVAGGTRSGGIGVTEAPSLGHPHTPPPEVTLAPAARNGDALPDPKPESCPRVSVPRPTASPTAPRPGPSRAAPCVLGQ
modifications: left off: HA, C-terminal, kept
VPS4A-FLAG [1]
  co-precipitation by VPS4A-FLAG: do not
VPS4A-FLAG [2]
  recruitment of VPS4A-FLAG to juxtanuclear compartments: not recruited to juxtanuclear membranes

B3: HHV6 pUL44: HA-tagged pUL71 homologue from HHV6 (pU44) (protein)
chain: MGNCFRRLSLFGQPTQAKYEMLCSSDDLETEELTYFLDMTYKDFGVYQNDIISHQKDTETMKTLLGLLPMYKKTKLRHTVMERCLSNCPNHVKDALCVELMKAEKILQTMDVVFMKTLIGEFSMCTDNLNQLLNKFATDQSTLSDVEKINSLIEIDGENSKRLLVELDPILHEETGLYQALPNVVTEAPSEKVKSIRVESEGESV
modifications: left off: HA, C-terminal, kept
VPS4A-FLAG [1]
  co-precipitation by VPS4A-FLAG: bind efficiently to co-transfected VPS4A-FLAG
VPS4A-FLAG [2]
  recruitment of VPS4A-FLAG to juxtanuclear compartments: it is recruited

B4: VPS4A-FLAG-V13D: FLAG-tagged VPS4A with V13D substitution that prevents binding to MIM2 (protein, UniProt Q9UN37 1-437, looked up, variant V13D)
Vacuolar protein …: MTTSTLQKAIDLDTKATEEDKAKNYEEALRLYQHAVEYFLHAIKYEAHSDKAKESIRAKCVQYLDRAEKLKDYLRSKEKHGKKPVKENQSEGKGSDSDSEGDNPEKKKLQEQLMGAVVMEKPNIRWNDVAGLEGAKEALKEAVILPIKFPHLFTGKRTPWRGILLFGPPGTGKSYLAKAVATEANNSTFFSVSSSDLMSKWLGESEKLVKNLFELARQHKPSIIFIDEVDSLCGSRNENESEAARRIKTEFLVQMQGVGNNNDGTLVLGATNIPWVLDSAIRRRFEKRIYIPLPEEAARAQMFRLHLGSTPHNLTDANIHELARKTEGYSGADISIIVRDSLMQPVRKVQSATHFKKVCGPSRTNPSMMIDDLLTPCSPGDPGAMEMTWMDVPGDKLLEPVVCMSDMLRSLATTRPTVNADDLLKVKKFSEDFGQES
modifications: FLAG tag
pUL71
  association of VPS4A variant with pUL71 at juxtanuclear compartments: prevents association

B5: VPS4A(L64D)-FLAG: FLAG-tagged VPS4A with L64D substitution that prevents binding to MIM1 (protein, UniProt Q9UN37 1-437, looked up, variant L64D)
Vacuolar protein …: B4 Vacuolar protein … with D13V, L64D
modifications: FLAG tag
pUL71
  association of VPS4A variant with pUL71 at juxtanuclear compartments: efficiently recruited by pUL71
